From patent publication US20250074988A1

Target: recombinant human PD-L1 protein (Item No. 10084-H08H, Sino Biological) (human) (UniProt Q9NZQ7)
Assay: SPR, Biacore 8K, antibody captured on anti-human chip, huPD-L1 analyte, 1:1 model

Chain of recombinant human PD-L1 protein (Item No. 10084-H08H, Sino Biological) (human) (Q9NZQ7 19-238 limits assumed): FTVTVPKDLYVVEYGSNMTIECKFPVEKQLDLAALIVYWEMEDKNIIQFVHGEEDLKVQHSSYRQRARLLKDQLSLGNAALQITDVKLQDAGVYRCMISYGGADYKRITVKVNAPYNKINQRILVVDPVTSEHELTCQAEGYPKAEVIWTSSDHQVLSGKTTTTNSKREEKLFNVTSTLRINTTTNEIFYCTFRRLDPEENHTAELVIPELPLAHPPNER

Substance: MDX 1105 (antibody)
- Kd: 0.359 nM
- koff: 0.00203 s⁻¹
- kon: 5.65e+06 M⁻¹ s⁻¹
